Test in all cases: cytokine release
The target in assay [1] is T1, HIV-1 Nef VY8 variant with Phe at P3 peptide on HLA-B*35:01 (human).
T1 peptide: VPFRPMTY

For assay [2], the target named is T2, HIV-1 Nef VY8 variant with Met at P3 peptide on HLA-B*35:01 (human).
T2 peptide: VPMRPMTY

Assay [3] concerns the target T3, HIV-1 Nef VY8 variant with Val at P3 peptide on HLA-B*35:01 (human).
T3 peptide: VPVRPMTY

Assay [4] concerns the target T4, HIV-1 Nef VY8 variant with Ala at P3 peptide on HLA-B*35:01 (human).
T4 peptide: VPARPMTY

Assay [5] addresses T5, HIV-1 Nef VY8 variant with Leu at P4 peptide on HLA-B*35:01 (human).
T5 peptide: VPLLPMTY

B1: H127 (A1-J31/B11) (TCR)
alpha AV1-1*01 AJ31*01 CDR3: CAVTSGDARLMF
beta BV11-1*01 BJ2-7*01 CDR3: CASSSDIVSYEQYF
Take B1: the binding result is listed as “no recognition” in assay [1], “recognises” in assay [2], “no recognition” in assay [3] and “no recognition” in assay [4].

B2: A1-S/B11-J1 (TCR)
alpha AV1-1*01 AJ26*01 CDR3: CAVSDNYGQNFVF
beta BV11-2*01 BJ1-1*01 CDR3: CASSLDLVSTEAFF
Regarding B2, the binding result in assay [5] was “no recognition”.

B3: TCR-139 (A1-T/B11-J1) (TCR)
alpha AV1-1*01 AJ26*01 CDR3: CAVTDNYGQNFVF
beta BV11-2*01 BJ1-1*01 CDR3: CASSLDLVSTEAFF
For the molecule B3, the binding result in assay [1] is “recognises”; in assay [2], “recognises”; in assay [3], “recognises”; in assay [4] it was “recognises”; in assay [5], “no recognition”.

The values above are taken from publication PMC4449784 (2015).
